Results from patent publication US9029097 (UNIVERSITE DE MONTREAL, dated 2015).

Target: T1, β2AR-GFP10 (human, UniProt P07550 1-413)
T1 construct: whole, on cells; Expressed in HEK293T cells; also called GFP tagged-β2 adrenergic receptor; not shown: GFP10, variant of GFP
Test: BRET2 kinetics, living cells, 10 µM Iso up to 4 min

binding result: binds
B1: QL-Gαi1-122Rluc (other)
chain: MGCTLSAEDKAAVERSKMIDRNLREDGEKAAREVKLLLLGAGESGKSTIVKQMKIIHEAGYSEEECKQYKAVVYSNTIQSIIAIIRAMGRLKIDFGDSARADDARQLFVLAGAAEEGFMTAESGGGGSMTSKVYDPEQRKRMITGPQWWARCKQMNVLDSFINYYDSEKHAENAVIFLHGNAASSYLWRHVVPHIEPVARCIIPDLIGMGKSGKSGNGSYRLLDHYKYLTAWFELLNLPKKIIFVGHDWGACLAFHYSYEHQDKIKAIVHAESVVDVIESWDEWPDIEEDIALIKSEEGEKMVLENNFFVETMLPSKIMRKLEPEEFAAYLEPFKEKGEVRRPTLSWPREIPLVKGGKPDVVQIVRNYNAYLRASDDLPKMFIESDPGFFSNAIVEGAKKFPNTEFVKVKGLHFSQEDAPDEMGKYIKSFVERVLKNEQSGGGGSLAGVIKRLWKDSGVQACFNRSREYQLNDSAAYYLNDLDRIAQPNYIPTQQDVLRTRVKTTGIVETHFTFKDLHFKMFDVGGLRSERKKWIHCFEGVTAIIFCVALSDYDLVLAEDEEMNRMHESMKLFDSICNNKWFTDTSIILFLNKKDLFEEKIKKSPLTICYPEYAGSNTYEEAAAYIQCQFEDLNKRKDTKEIYTHFTCATDTKNVQFVFDAVTDVIIKNNLKDCGLF
notes: unable to hydrolyse GTP; also called Rluc-tagged constitutively active Q204L-Gαi1 mutant
